According to IntAct's records for PubMed 31515488:

B1: Tuftelin-interacting protein 11 (Homo sapiens), Q9UBB9 (parent)
chain: MSLSHLYRDGEGRIDDDDDERENFEITDWDLQNEFNPNRQRHWQTKEEATYGVWAERDSDDERPSFGGKRARDYSAPVNFISAGLKKGAAEEAELEDSDDEEKPVKQDDFPKDFGPRKLKTGGNFKPSQKGFAGGTKSFMDFGSWERHTKGIGQKLLQKMGYVPGRGLGKNAQGIINPIEAKQRKGKGAVGAYGSERTTQSMQDFPVVDSEEEAEEEFQKELSQWRKDPSGSKKKPKYSYKTVEELKAKGRISKKLTAPQKELSQVKVIDMTGREQKVYYSYSQISHKHNVPDDGLPLQSQQLPQSGKEAKAPGFALPELEHNLQLLIDLTEQEIIQNDRQLQYERDMVVNLFHELEKMTEVLDHEERVISNLSKVLEMVEECERRMQPDCSNPLTLDECARIFETLQDKYYEEYRMSDRVDLAVAIVYPLMKEYFKEWDPLKDCTYGTEIISKWKSLLENDQLLSHGGQDLSADAFHRLIWEVWMPFVRNIVTQWQPRNCDPMVDFLDSWVHIIPVWILDNILDQLIFPKLQKEVENWNPLTDTVPIHSWIHPWLPLMQARLEPLYSPIRSKLSSALQKWHPSDSSAKLILQPWKDVFTPGSWEAFMVKNIVPKLGMCLGELVINPHQQHMDAFYWVIDWEGMISVSSLVGLLEKHFFPKWLQVLCSWLSNSPNYEEITKWYLGWKSMFSDQVLAHPSVKDKFNEALDIMNRAVSSNVGAYMQPGARENIAYLTHTERRKDFQYEAMQERREAENMAQRGIGVAASSVPMNFKDLIETKAEEHNIVFMPVIGKRHEGKQLYTFGRIVIYIDRGVVFVQGEKTWVPTSLQSLIDMAK
B2: Glutathione S-transferase Mu 3 (Homo sapiens), P21266 (parent)
chain: MSCESSMVLGYWDIRGLAHAIRLLLEFTDTSYEEKRYTCGEAPDYDRSQWLDVKFKLDLDFPNLPYLLDGKNKITQSNAILRYIARKHNMCGETEEEKIRVDIIENQVMDFRTQLIRLCYSSDHEKLKPQYLEELPGQLKQFSMFLGKFSWFAGEKLTFVDFLTYDILDQNRIFDPKCLDEFPNLKAFMCRFEALEKIAAYLQSDQFCKMPINNKMAQWGNKPVC
partner: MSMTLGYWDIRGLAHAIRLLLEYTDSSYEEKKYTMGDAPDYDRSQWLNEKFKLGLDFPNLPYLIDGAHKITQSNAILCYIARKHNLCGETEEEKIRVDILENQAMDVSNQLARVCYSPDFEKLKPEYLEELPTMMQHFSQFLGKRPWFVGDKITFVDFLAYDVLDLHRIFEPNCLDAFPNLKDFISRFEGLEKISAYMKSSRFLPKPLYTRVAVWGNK
B3: ADP-ribosylation factor-like protein 11 (Homo sapiens), Q969Q4 (parent)
chain: MGSVNSRGHKAEAQVVMMGLDSAGKTTLLYKLKGHQLVETLPTVGFNVEPLKAPGHVSLTLWDVGGQAPLRASWKDYLEGTDILVYVLDSTDEARLPESAAELTEVLNDPNMAGVPFLVLANKQEAPDALPLLKIRNRLSLERFQDHCWELRGCSALTGEGLPEALQSLWSLLKSRSCMCLQARAHGAERGDSKRS
partner: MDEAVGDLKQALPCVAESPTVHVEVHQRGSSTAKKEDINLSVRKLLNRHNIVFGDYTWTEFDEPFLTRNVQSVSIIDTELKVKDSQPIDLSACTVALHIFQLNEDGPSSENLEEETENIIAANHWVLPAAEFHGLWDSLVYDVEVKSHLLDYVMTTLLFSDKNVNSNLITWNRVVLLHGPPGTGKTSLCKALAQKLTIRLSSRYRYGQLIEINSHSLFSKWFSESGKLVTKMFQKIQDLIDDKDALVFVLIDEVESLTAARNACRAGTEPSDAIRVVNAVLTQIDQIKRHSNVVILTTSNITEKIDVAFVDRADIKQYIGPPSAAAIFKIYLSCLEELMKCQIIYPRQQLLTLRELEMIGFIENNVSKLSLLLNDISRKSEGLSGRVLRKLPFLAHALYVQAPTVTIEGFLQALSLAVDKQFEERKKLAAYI
B4: Pleckstrin homology domain-containing family N member 1 (Homo sapiens), Q494U1 (parent)
chain: MGNSHCVPQAPRRLRASFSRKPSLKGNREDSARMSAGLPGPEAARSGDAAANKLFHYIPGTDILDLENQRENLEQPFLSVFKKGRRRVPVRNLGKVVHYAKVQLRFQHSQDVSDCYLELFPAHLYFQAHGSEGLTFQGLLPLTELSVCPLEGSREHAFQITGPLPAPLLVLCPSRAELDRWLYHLEKQTALLGGPRRCHSAPPQRRLTRLRTASGHEPGGSAVCASRVKLQHLPAQEQWDRLLVLYPTSLAIFSEELDGLCFKGELPLRAVHINLEEKEKQIRSFLIEGPLINTIRVVCASYEDYGHWLLCLRAVTHREGAPPLPGAESFPGSQVMGSGRGSLSSGGQTSWDSGCLAPPSTRTSHSLPESSVPSTVGCSSQHTPDQANSDRASIGRRRTELRRSGSSRSPGSKARAEGRGPVTPLHLDLTQLHRLSLESSPDAPDHTSETSHSPLYADPYTPPATSHRRVTDVRGLEEFLSAMQSARGPTPSSPLPSVPVSVPASDPRSCSSGPAGPYLLSKKGALQSRAAQRHRGSAKDGGPQPPDAPQLVSSAREGSPEPWLPLTDGRSPRRSRDPGYDHLWDETLSSSHQKCPQLGGPEASGGLVQWI
partner: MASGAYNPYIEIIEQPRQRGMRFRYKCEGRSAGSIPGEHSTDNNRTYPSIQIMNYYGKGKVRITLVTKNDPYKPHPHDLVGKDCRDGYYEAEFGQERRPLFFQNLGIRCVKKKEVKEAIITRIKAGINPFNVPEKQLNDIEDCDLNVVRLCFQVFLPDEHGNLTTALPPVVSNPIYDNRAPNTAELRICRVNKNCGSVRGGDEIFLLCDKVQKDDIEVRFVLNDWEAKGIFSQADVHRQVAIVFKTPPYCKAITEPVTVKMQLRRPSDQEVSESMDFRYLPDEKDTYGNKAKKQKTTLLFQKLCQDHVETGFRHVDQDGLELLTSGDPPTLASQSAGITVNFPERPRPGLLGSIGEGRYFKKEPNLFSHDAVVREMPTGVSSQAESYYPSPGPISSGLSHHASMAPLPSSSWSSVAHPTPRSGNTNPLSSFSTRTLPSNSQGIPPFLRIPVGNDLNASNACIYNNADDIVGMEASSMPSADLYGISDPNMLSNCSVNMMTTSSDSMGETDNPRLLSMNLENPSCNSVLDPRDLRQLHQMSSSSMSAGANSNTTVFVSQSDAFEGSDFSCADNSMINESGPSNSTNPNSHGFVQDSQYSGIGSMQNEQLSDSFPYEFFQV

Variants of: B1
Conditions: with lca5l_human LCA5L

Variant	effect of a mutation on the interaction
M140V	with no effect

Variants of: B1
Conditions: with ccnd3_human CCND3, P30281
ccnd3_human CCND3, P30281, sequence (P30281 whole entry): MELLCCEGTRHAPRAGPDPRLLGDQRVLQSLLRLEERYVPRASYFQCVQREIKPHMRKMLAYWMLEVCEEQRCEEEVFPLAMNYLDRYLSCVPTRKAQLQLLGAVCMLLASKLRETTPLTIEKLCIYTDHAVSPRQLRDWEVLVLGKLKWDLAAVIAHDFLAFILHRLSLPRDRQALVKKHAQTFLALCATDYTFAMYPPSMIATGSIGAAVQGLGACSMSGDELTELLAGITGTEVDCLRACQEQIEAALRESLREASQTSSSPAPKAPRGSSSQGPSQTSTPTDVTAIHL

Variant	effect of a mutation on the interaction
M140V	with no effect

Variants of: B1
Conditions: with cenpu_human CENPU

Variant	effect of a mutation on the interaction
M140V	with no effect

Variants of: B2
Conditions: with gstm4_human GSTM4, Q03013

Variant	effect of a mutation on the interaction
R86H	disrupting interaction strength
L23P	disrupting interaction strength

Variants of: B3
Conditions: with pch2_human TRIP13, Q15645

Variant	effect of a mutation on the interaction
C148R	with no effect

Variants of: B4
Conditions: with rel_human REL

Variant	effect of a mutation on the interaction
R487P	with no effect
